Measurements: paper PMC10107573 (Nature Communications, 2023)

Biological target: T1, SARS-CoV-2 Omicron BA.1 spike ectodomain (S trimer) (SARS-CoV-2 Omicron BA.1, S371L | S373P | S375F | S477N | E484A)
T1 construct: also called BA.1 S trimer
Experiment: cryo-EM structure
Details: both partners purified

B1: 10-5B Fab (Fab, V domains shown)
VH: EVQLVESGGGLIQPGGSLRLSCAVSGFTVSRMSWVRQAPGKGLECVSVIYTGGNTDYADSVKGRFTISRDNSKNTLYLQMNSLRAEDTALYYCVRGSGGIHDAFDIWGQGTMVTVSS
VL: DIQMTQSPSSVSASVGDRVTITCRASQGISTWLAWYQQKPGKAPKVLINAASGLQSGVPSRFSGSGSGTDFTLTISSLQPEDFATYYCQQAHSFPPTFGPGTKLEIK
notes: also called 10-5B Fab fragments
For B1, the “stoichiometry N” value was 3 Fabs per S trimer.
